Among the targets are SCRIB_1, Q14160; DLG1_2, Q12959; PDLIM1, O00151; GRASP, Q7Z6J2; PARD3_3, Q8TEW0; FRMPD3, Q5JV73; MAGI2_2, Q86UL8; DLG4_2, P78352; GRIP2_7, Q9C0E4; LDB3, O75112.
Holding throughout (assay): holdup assay
Holding throughout (design): key: below the threshold = too weak to quantify, mostly under pKd 3.1 to 4
What all share (conditions): plain residues with an end cap or a label only (N-terminal biotin on a linker: ado-ado)

Another assay concerns the target T1, GRIP1_4, Q9Y3R0.
T1 sequence (Q9Y3R0 467-571, limits assumed, looked up): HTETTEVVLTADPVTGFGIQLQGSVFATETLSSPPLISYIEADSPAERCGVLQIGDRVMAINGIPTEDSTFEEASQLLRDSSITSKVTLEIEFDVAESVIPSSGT

For the next assay, the target named is T2, LIN7B, Q9HAP6.
T2 sequence (Q9HAP6 88-185, limits assumed, looked up): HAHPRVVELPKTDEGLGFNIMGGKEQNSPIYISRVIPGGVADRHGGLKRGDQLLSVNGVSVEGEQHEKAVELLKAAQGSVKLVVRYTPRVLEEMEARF

For another assay, the target named is T3, SNTA1, Q13424.
T3 sequence (Q13424 82-180, limits assumed, looked up): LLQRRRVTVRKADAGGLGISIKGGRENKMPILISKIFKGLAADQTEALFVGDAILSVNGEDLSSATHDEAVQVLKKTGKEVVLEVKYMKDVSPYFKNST

Another assay has as its target T4, DFNB31_1, Q9P202.
T4 sequence (Q9P202 135-233, limits assumed, looked up): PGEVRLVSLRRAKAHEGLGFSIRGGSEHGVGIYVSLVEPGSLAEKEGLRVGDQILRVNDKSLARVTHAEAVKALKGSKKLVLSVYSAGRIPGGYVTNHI

The next assay deals with T5, CARD11, Q9BXL7.
T5 sequence (Q9BXL7 662-765, limits assumed, looked up): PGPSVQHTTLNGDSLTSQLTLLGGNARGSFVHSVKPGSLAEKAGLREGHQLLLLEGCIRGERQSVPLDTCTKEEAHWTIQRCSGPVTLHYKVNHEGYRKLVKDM

The next assay concerns the target T6, DVL3, Q92997.
T6 sequence (Q92997 244-331, limits assumed, looked up): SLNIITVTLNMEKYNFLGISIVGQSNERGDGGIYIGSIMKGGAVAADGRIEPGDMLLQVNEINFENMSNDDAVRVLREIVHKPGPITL

In a further assay the target is T7, TIAM2, Q8IVF5.
T7 sequence (Q8IVF5 885-986, limits assumed, looked up): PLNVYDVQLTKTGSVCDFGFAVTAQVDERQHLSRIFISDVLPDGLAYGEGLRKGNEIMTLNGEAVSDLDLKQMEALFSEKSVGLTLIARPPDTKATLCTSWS

The next assay deals with T8, APBA1_1, Q02410.
T8 sequence (Q02410 651-752, limits assumed, looked up): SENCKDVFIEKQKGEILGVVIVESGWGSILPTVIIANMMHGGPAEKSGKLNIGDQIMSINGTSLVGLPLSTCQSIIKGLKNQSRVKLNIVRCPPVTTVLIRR

The target in the next assay is T9, PTPN13_1, Q12923.
T9 sequence (Q12923 1088-1188, limits assumed, looked up): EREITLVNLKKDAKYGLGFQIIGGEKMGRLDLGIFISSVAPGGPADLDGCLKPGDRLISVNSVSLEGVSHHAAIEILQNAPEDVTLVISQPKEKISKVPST

In another assay the target is T10, DFNB31_3, Q9P202.
T10 sequence (Q9P202 811-907, limits assumed, looked up): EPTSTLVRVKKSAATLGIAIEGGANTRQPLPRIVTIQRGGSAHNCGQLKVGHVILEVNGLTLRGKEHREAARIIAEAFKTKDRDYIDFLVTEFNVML

The next assay has as its target T11, HTRA3, P83110.
T11 sequence (P83110 354-453, limits assumed, looked up): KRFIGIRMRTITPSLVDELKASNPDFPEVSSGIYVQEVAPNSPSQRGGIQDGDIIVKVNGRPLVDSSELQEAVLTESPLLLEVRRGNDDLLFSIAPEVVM

The next assay deals with T12, DFNB31_2, Q9P202.
T12 sequence (Q9P202 274-371, limits assumed, looked up): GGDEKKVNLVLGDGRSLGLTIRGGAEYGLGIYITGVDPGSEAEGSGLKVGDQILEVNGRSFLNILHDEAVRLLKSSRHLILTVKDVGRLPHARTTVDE

In a further assay the target is T13, PDZD7_3, Q9H5P4.
T13 sequence (Q9H5P4 857-944, limits assumed, looked up): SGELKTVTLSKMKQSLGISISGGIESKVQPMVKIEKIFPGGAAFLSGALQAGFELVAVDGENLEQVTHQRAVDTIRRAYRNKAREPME

A further assay has as its target T14, LIN7A, O14910.
T14 sequence (O14910 103-200, limits assumed, looked up): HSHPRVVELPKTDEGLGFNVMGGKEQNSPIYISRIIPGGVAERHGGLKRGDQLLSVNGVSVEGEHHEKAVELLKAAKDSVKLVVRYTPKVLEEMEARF

Chain of GRIP2_7, Q9C0E4 (Q9C0E4 934-1023): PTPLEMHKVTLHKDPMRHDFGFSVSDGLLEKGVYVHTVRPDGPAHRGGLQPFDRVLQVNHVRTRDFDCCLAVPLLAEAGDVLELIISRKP
Chain of FRMPD3, Q5JV73 (Q5JV73 12-100): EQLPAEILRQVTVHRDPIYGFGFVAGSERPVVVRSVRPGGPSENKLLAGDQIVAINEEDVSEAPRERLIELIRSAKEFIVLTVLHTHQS
Chain of SCRIB_1, Q14160 (Q14160 718-814): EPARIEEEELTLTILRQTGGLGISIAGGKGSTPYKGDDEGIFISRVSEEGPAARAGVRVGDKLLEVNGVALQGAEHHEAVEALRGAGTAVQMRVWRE
Chain of LDB3, O75112 (O75112 1-94): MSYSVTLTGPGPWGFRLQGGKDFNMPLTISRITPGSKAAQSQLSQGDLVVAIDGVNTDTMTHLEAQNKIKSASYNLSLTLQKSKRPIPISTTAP
Chain of PARD3_3, Q8TEW0 (Q8TEW0 582-685): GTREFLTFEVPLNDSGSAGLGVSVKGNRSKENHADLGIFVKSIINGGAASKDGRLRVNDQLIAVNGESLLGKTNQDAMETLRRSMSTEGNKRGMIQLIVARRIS
Chain of DLG4_2, P78352 (P78352 155-259): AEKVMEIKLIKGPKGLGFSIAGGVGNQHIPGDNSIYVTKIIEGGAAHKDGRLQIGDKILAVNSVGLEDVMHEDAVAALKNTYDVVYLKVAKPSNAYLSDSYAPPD
Chain of PDLIM1, O00151 (O00151 1-87): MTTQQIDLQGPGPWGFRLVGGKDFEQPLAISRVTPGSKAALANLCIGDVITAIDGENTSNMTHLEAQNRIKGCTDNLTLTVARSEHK
Chain of DLG1_2, Q12959 (Q12959 314-412): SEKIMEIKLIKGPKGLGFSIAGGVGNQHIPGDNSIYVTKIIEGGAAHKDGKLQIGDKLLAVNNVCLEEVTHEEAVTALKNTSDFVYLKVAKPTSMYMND
Chain of GRASP, Q7Z6J2 (Q7Z6J2 96-193): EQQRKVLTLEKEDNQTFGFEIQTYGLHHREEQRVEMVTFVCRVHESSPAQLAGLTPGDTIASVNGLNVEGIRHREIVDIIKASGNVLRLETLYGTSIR
Chain of MAGI2_2, Q86UL8 (Q86UL8 410-522): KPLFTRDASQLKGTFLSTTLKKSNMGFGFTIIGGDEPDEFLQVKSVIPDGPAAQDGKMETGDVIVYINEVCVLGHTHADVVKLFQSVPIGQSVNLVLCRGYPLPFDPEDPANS

Consider RTQSSDSAYV [GJD2, Q9UKL4], for which the pKd entry with GRIP1_4, Q9Y3R0 was “below the threshold”; with LIN7B, Q9HAP6, “below the threshold”; in the assay with SNTA1, Q13424, “below the threshold”; in the assay with DFNB31_1, Q9P202, “below the threshold”; with CARD11, Q9BXL7, “below the threshold”; with SCRIB_1, Q14160, “below the threshold”. Besides, the pKd with DLG1_2, Q12959 is 3.88; with DVL3, Q92997, 3.48; with TIAM2, Q8IVF5, “below the threshold”; in the assay with PDLIM1, O00151, “below the threshold”; with GRASP, Q7Z6J2 it was 3.48; in the assay with PARD3_3, Q8TEW0 it was 3.68. In addition, the pKd result in the assay with APBA1_1, Q02410 is “below the threshold”; with PTPN13_1, Q12923, “below the threshold”; with DFNB31_3, Q9P202, “below the threshold”; with FRMPD3, Q5JV73, 3.65; in the assay with HTRA3, P83110, 4.68; with MAGI2_2, Q86UL8 it was “below the threshold”. Also, the negative logarithm of the Kd (pKd) was 3.65 in the assay with DLG4_2, P78352; “below the threshold” in the assay with GRIP2_7, Q9C0E4; “below the threshold” in the assay with DFNB31_2, Q9P202; “below the threshold” in the assay with PDZD7_3, Q9H5P4; “below the threshold” with LIN7A, O14910; “below the threshold” with LDB3, O75112.
With PLDSQQHTEV [FAT1, Q14517], the negative-log Kd (pKd) result is “below the threshold” with GRIP1_4, Q9Y3R0; “below the threshold” with LIN7B, Q9HAP6; 4.22 with SNTA1, Q13424; 3.85 in the assay with DFNB31_1, Q9P202; “below the threshold” with CARD11, Q9BXL7; 4.12 in the assay with SCRIB_1, Q14160. For the same molecule, the negative logarithm of the Kd (pKd) with DLG1_2, Q12959 is 4.99; with DVL3, Q92997, “below the threshold”; in the assay with TIAM2, Q8IVF5, “below the threshold”; in the assay with PDLIM1, O00151 it was “below the threshold”; in the assay with GRASP, Q7Z6J2, 4.34; with PARD3_3, Q8TEW0 it was “below the threshold”. For the same molecule, the negative logarithm of the Kd (pKd) result is on record as “below the threshold” with APBA1_1, Q02410; “below the threshold” with PTPN13_1, Q12923; “below the threshold” in the assay with DFNB31_3, Q9P202; “below the threshold” with FRMPD3, Q5JV73; “below the threshold” with HTRA3, P83110; “below the threshold” in the assay with MAGI2_2, Q86UL8. For the same molecule, the pKd was 4.8 with DLG4_2, P78352; “below the threshold” with GRIP2_7, Q9C0E4; “below the threshold” with DFNB31_2, Q9P202; 4.31 with PDZD7_3, Q9H5P4; “below the threshold” with LIN7A, O14910; “below the threshold” with LDB3, O75112.
Consider SRPTKGPTLL [PLEKHH2, Q8IVE3], for which the negative-log Kd (pKd) entry with GRIP1_4, Q9Y3R0 was “below the threshold”; with LIN7B, Q9HAP6, “below the threshold”; with SNTA1, Q13424 it was “below the threshold”; with DFNB31_1, Q9P202 it was “below the threshold”; with CARD11, Q9BXL7, “below the threshold”; with SCRIB_1, Q14160, 3.86. The negative-log Kd (pKd) in the assay with DLG1_2, Q12959 is 3.82; with DVL3, Q92997, “below the threshold”; with TIAM2, Q8IVF5, “below the threshold”; with PDLIM1, O00151 it was “below the threshold”; with GRASP, Q7Z6J2, 5.22; with PARD3_3, Q8TEW0 it was “below the threshold”. Further, the pKd result with APBA1_1, Q02410 is “below the threshold”; in the assay with PTPN13_1, Q12923, “below the threshold”; in the assay with DFNB31_3, Q9P202, 3.5; in the assay with FRMPD3, Q5JV73, “below the threshold”; in the assay with HTRA3, P83110, “below the threshold”; in the assay with MAGI2_2, Q86UL8 it was 4.2. Further, the negative logarithm of the Kd (pKd) is 3.7 in the assay with DLG4_2, P78352; “below the threshold” with GRIP2_7, Q9C0E4; “below the threshold” in the assay with DFNB31_2, Q9P202; 4.78 with PDZD7_3, Q9H5P4; “below the threshold” in the assay with LIN7A, O14910; “below the threshold” with LDB3, O75112.
Consider LTAQEQPVYI [APBA1, Q02410], for which the pKd entry in the assay with GRIP1_4, Q9Y3R0 is “below the threshold”; with LIN7B, Q9HAP6 it was 3.66; with SNTA1, Q13424, “below the threshold”; with DFNB31_1, Q9P202, “below the threshold”; with CARD11, Q9BXL7 it was “below the threshold”; in the assay with SCRIB_1, Q14160 it was “below the threshold”. Besides, the pKd entry with DLG1_2, Q12959 was “below the threshold”; with DVL3, Q92997, 3.87; with TIAM2, Q8IVF5, 4.01; with PDLIM1, O00151, “below the threshold”; with GRASP, Q7Z6J2, “below the threshold”; with PARD3_3, Q8TEW0 it was 4.82. Besides, the negative logarithm of the Kd (pKd) is 3.65 with APBA1_1, Q02410; “below the threshold” with PTPN13_1, Q12923; 3.5 with DFNB31_3, Q9P202; “below the threshold” in the assay with FRMPD3, Q5JV73; 4.41 with HTRA3, P83110; 3.52 with MAGI2_2, Q86UL8. Besides, the pKd result with DLG4_2, P78352 was “below the threshold”; in the assay with GRIP2_7, Q9C0E4, 3.78; in the assay with DFNB31_2, Q9P202, “below the threshold”; with PDZD7_3, Q9H5P4, “below the threshold”; with LIN7A, O14910, “below the threshold”; with LDB3, O75112, “below the threshold”.

As usually defined, the pKd is −log10 of the Kd, conventionally taken in molar units.

The values are drawn from publication PMC9482650, “Quantitative fragmentomics allow affinity mapping of interactomes” (Nature Communications, 2022).
